One test addresses T1, T61A.
T1 sequence (chain, by the resolver, C terminal GFP fusion, not carried in the letters): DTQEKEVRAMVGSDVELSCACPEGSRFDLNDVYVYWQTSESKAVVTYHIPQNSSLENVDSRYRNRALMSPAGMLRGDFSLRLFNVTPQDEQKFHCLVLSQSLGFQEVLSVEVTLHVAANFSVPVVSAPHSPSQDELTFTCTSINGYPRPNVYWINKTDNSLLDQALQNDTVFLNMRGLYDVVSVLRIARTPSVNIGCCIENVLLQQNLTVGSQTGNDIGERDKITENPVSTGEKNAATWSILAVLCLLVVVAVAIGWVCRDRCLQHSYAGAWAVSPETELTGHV
The experiment in a line: flow cytometry on 293T cells expressing B7-H2-GFP mutants; normalised to wild type B7-H2 (100%) and vector control (0%).

Test [1] concerns the target human CD28, full length, expressed on cells (CD28+293T cells) (human) (UniProt P10747). The experiment in a line: cell-based or functional assay.
In test [2] the target is T2, human B7-H7Ig fusion protein (human, UniProt Q9UM44 23-344).
T2 construct: not shown: Ig Fc tag; made from pMIgV or pHIgV plasmid and detected with anti-mouse Ig
T2 sequence: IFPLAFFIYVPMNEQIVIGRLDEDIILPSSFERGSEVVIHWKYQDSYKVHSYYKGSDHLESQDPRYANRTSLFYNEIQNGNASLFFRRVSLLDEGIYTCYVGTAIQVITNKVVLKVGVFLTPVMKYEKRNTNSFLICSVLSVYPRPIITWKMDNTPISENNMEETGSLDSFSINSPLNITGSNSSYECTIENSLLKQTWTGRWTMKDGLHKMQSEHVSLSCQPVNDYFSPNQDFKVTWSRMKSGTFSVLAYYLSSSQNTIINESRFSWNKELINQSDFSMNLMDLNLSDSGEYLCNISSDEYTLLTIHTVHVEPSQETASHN
The experiment in a line: CDS screen: 384-well plate of 293T cells, one human transmembrane gene a well; B7-H7Ig plus anti-mIg FMAT blue; total fluorescence per well.

For a further test, the target named is T3, B7-1.
T3 chain: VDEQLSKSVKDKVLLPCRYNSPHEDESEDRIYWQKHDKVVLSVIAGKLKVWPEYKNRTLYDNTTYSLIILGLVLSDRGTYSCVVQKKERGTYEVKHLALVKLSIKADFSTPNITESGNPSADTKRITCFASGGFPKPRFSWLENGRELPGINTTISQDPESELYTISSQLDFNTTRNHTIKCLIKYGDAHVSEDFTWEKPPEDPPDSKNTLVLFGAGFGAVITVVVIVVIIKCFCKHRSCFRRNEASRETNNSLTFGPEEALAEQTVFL
The test can be described thus: CDS well image, 293T cells transfected with the mouse gene, stained with the mouse fusion protein.

In a further test the target is T4, B7-2.
T4 chain: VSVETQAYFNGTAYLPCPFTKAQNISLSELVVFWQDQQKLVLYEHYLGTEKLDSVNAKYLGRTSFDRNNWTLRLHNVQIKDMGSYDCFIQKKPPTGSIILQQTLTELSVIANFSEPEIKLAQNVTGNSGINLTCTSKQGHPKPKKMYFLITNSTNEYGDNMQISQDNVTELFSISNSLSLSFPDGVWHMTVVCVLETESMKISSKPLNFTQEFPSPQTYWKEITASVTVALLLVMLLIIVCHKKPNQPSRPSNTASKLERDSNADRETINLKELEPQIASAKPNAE
Described as above.

For another test, the target named is T5, B7-DC (Mus musculus, UniProt Q9WUL5).
T5 sequence (membrane protein, looked up): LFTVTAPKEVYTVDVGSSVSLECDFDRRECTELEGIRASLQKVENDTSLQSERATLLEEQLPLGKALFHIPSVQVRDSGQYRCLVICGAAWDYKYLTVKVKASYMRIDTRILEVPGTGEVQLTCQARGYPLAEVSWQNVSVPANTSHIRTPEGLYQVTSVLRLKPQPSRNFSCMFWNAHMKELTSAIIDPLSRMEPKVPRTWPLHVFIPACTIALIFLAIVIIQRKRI
Described as above.

The target of a further test is T6, PD-1 (Mus musculus, UniProt Q02242).
T6 sequence (membrane protein, looked up): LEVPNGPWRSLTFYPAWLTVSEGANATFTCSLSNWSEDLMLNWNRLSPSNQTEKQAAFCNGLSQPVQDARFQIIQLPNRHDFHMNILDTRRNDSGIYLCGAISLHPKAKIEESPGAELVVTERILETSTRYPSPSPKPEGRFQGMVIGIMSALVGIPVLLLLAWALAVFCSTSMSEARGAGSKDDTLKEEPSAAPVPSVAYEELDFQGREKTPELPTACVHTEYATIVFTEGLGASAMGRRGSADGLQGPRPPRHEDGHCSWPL
Described as above.

The next test addresses T7, ICOS (Mus musculus, UniProt Q9WVS0).
T7 sequence (membrane protein, looked up): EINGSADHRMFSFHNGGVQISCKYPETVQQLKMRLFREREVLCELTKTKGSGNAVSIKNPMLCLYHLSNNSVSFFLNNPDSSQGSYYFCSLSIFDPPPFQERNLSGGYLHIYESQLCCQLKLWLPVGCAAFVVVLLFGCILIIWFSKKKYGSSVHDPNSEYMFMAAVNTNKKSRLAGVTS
The description is as above.

Test [3] has as its target T8, mouse B7-H2, full length, expressed on 293T cells (mouse, UniProt Q9JHJ8 44-322).
T8 construct: whole, on cells
T8 sequence (looked up): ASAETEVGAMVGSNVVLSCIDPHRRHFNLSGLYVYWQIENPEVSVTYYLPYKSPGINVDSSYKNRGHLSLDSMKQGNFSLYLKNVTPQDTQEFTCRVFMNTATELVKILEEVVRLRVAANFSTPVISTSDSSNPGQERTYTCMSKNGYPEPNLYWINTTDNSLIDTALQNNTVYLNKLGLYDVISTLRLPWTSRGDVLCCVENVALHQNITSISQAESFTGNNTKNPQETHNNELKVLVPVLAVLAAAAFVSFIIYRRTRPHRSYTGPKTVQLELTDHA
The description is as above.

The target of test [4] is T9, mouse B7-H2/hB7-H2IgV chimera, expressed on 293T cells (human; mouse, UniProt Q9JHJ8 150-322).
T9 construct: range 150-C-terminus; Mouse B7-H2 Ig V region (Met1-Val149) replaced with the corresponding human region (Met1-Gln123) in the mouse B7-H2 full length gene; also called chimeric gene product
T9 sequence: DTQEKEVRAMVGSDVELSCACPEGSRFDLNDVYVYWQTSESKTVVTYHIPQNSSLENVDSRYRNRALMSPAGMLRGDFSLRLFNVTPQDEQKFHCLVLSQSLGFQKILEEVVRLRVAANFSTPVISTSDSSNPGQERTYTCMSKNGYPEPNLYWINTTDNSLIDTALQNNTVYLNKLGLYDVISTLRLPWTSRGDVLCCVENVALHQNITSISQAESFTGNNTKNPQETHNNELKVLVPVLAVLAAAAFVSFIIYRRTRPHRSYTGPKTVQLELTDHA
The experiment in a line: flow cytometry, 293T cells expressing the mouse B7-H2/hB7-H2IgV chimera (mB7-H2/hB7-H2IgV+ 293T). The method, then: FIGS. 19A-19B. […] The results were analyzed by flow cytometry.
In general terms: In flow cytometry, cells or beads pass a laser one at a time.

For the next test, the target named is B7-H1 (Mus musculus, UniProt Q9EP73). The experiment in a line: CDS well image, 293T cells transfected with the mouse gene, stained with the mouse fusion protein.
The target in the next test is T10, CD28 (Mus musculus, UniProt P31041).
T10 sequence (membrane protein, looked up): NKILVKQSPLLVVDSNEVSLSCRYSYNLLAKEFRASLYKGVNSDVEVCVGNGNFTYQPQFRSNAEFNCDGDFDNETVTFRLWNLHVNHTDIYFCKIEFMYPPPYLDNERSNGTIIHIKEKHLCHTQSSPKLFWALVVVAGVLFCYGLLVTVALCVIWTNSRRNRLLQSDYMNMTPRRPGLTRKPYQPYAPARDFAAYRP
Described as above.

The next test concerns the target CTLA-4 (Mus musculus, UniProt P09793). The test is described as above.

Where only a bound is given, the exact number is not on record here.

Sequence of B7-H1 (Q9EP73 19-290 limits assumed): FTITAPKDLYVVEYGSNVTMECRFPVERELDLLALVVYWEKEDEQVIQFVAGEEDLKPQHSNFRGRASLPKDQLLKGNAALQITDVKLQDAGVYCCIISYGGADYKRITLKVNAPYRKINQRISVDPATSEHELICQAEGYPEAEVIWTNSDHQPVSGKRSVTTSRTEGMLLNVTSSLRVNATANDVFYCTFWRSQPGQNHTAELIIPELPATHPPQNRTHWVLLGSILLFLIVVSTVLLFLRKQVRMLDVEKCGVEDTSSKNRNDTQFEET
Sequence of human CD28, full length, expressed on cells (CD28+293T cells) (human) (P10747 19-220): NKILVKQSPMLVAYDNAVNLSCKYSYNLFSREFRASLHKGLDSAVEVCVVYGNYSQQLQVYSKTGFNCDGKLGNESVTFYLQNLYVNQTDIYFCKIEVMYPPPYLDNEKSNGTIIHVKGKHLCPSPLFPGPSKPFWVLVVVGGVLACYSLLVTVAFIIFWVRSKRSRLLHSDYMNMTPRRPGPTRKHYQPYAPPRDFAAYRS

For “human CTLA4Ig fusion protein (from UniProt P16410 37-162) (Fc fusion)”, the Binding Percentage% with T61A amounted to 32.1%.

“mouse anti-human CD28 mAb CD28.6 (blocking) (antibody)”: the tetanus toxoid-elicited proliferation of memory T cells; inhibition in [1] is more than 50%.

B1: human B7-H7CR, full length, expressed on 293T cells (B7-H7CR+293T cells) (receptor)
chain: LSVQQGPNLLQVRQGSQATLVCQVDQATAWERLRVKWTKDGAILCQPYITNGSLSLGVCGPQGRLSWQAPSHLTLQLDPVSLNHSGAYVCWAAVEIPELEEAEGNITRLFVDPDDPTQNRNRIASFPGFLFVLLGVGSMGVAAIVWGAWFWGRRSCQQRDSGNSPGNAFYSNVLYRPRGAPKKSEDCSGEGKDQRGQSIYSTSFPQPAPRQPHLASRPCPSPRPCPSPRPGHPVSMVRVSPRPSPTQQPRPKGFPKVGEE
notes: This id also stands for B7-H7CR on human CD4+ T cells in the functional rows; also called TMIGD2; B7-H7R
As for B1, in test [2], the binding result is on record as “binds”.

B2: B7-1Ig (Fc fusion)
chain: VDEQLSKSVKDKVLLPCRYNSPHEDESEDRIYWQKHDKVVLSVIAGKLKVWPEYKNRTLYDNTTYSLIILGLVLSDRGTYSCVVQKKERGTYEVKHLALVKLSIKADFSTPNITESGNPSADTKRITCFASGGFPKPRFSWLENGRELPGINTTISQDPESELYTISSQLDFNTTRNHTIKCLIKYGDAHVSEDFTWEKPPEDPPDSKN
notes: also called mouse B7-1Ig fusion protein; not shown: Ig (Fc) part and any linker of the R&D Systems fusion protein
Consider B2, for which the binding result (with B7-1; in the test with B7-2; in the test with B7-DC; in the test with PD-1; with ICOS; in test [3]) was “no binding” throughout.

B3: mouse CD28Ig fusion protein (Fc fusion, UniProt P31041 20-149, looked up)
chain: NKILVKQSPLLVVDSNEVSLSCRYSYNLLAKEFRASLYKGVNSDVEVCVGNGNFTYQPQFRSNAEFNCDGDFDNETVTFRLWNLHVNHTDIYFCKIEFMYPPPYLDNERSNGTIIHIKEKHLCHTQSSPK
notes: Bought from R&D Systems; Ig (Fc) part not given
In the case of B3, the binding result is reported as “binds” in test [4]; “no binding” in the test with B7-H1; “no binding” in the test with B7-DC; “no binding” in the test with CD28; “no binding” with CTLA-4; “no binding” with PD-1. Further, the binding result (with ICOS; in [3]) was “no binding” each time.

B4: B7-2Ig (Fc fusion)
chain: VSVETQAYFNGTAYLPCPFTKAQNISLSELVVFWQDQQKLVLYEHYLGTEKLDSVNAKYLGRTSFDRNNWTLRLHNVQIKDMGSYDCFIQKKPPTGSIILQQTLTELSVIANFSEPEIKLAQNVTGNSGINLTCTSKQGHPKPKKMYFLITNSTNEYGDNMQISQDNVTELFSISNSLSLSFPDGVWHMTVVCVLETESMKISSKPLNFTQEFPSPQTYWK
notes: also called mouse B7-2Ig fusion protein; not shown: Ig (Fc) part and any linker of the R&D Systems fusion protein
B4: the binding result in the test with B7-1 is “no binding”; with B7-2, “no binding”; in the test with B7-H1, “no binding”; with B7-DC, “no binding”; with CD28, “binds”; with CTLA-4 it was “binds”. Moreover, the binding result (with PD-1; with ICOS; in test [3]) was “no binding” throughout.

(Values after patent US20120219559A1 (Johns Hopkins, published 2012).)
